Results reported in patent publication US6248875, “Neuronal MORT1 isoforms” (American Home Products Corporation, dated 2001).

Molecular target: T1, SNF4-pACTII (unrelated fusion with Gal4 activation domain) (yeast, UniProt P12904)
T1 sequence: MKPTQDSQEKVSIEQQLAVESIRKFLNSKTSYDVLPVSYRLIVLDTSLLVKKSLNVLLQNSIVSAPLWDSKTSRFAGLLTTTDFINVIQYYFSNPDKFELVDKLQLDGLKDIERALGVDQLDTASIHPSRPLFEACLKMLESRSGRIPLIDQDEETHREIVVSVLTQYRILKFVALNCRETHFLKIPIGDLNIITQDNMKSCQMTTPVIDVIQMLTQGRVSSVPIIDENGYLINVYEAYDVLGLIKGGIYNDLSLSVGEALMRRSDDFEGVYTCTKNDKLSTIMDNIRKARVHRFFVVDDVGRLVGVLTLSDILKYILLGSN
Experiment: yeast two-hybrid, HIS3 reporter, strain YCB5.1
Protocol: Figure 1: FIG. 1: Investigation of the MORT1 transcript isoforms with MACHα1 C360S in a yeast two-hybrid system: Activation of the HIS3 reporter gene. Each MORT1 transcript isoforms was expressed as a fusion protein with Gal4 DNA binding domain. MACHα1 C360S was expressed as a fusion protein with the Gal4 activation domain. Yeast strains were plated at a cell density of 5 ×10^1, 5 ×10^2, 5 ×10^3, 5 ×10^4 and 5 ×10^5 (left to right within a plate. Sibling isolates from yeast strains expressing a MORT1 transcript isoform with MACHα1 C360S fusion proteins were plated on histidine deficient media containing 0, 20 or 40 mM 3-aminotriazole (3-AT). The top row of plates (1) contained yeast strains that express two fusion proteins as follows: YCB5: MORT1-pAS1/MACHα1 C360S-pACTII; YCB9: MORT1Δ21-pAS1/MACHα1 C360S-pACTII; YCB16: MORT1 G173A-pAS1/MACHα1 C360S-pACTII. The bottom row of plates (3) contains negative control strains which express only the MORT1 transcript isoform fusion protein with a recombinant vector containing nonrelated heterologous DNA, as follows: YCB5.1: MORT1-pAS1/SNF4-pACTII; YCB9.1: […]. […] Each MORT1 transcript isoforms was expressed as a fusion protein with Gal4 DNA binding domain. MACHα1 C360S was expressed as a fusion protein with the Gal4 activation domain. […]

binding result: no binding
B1: MORT1 fusion protein with Gal4 DNA binding domain (MORT1-pAS1) (other)
chain: MDPFLVLLHSVSSSLSSSELTELKFLCLGRVGKRKLERVQSGLDLFSMLLEQNDLEPGHTELLRELLASLRRHDLLRRVDDFEAGAAAGAAPGEEDLCAAFNVICDNVGKDWRRLARQLKVSDTKIDSIEDRYPRNLTERVRESLRIWKNTEKENATVAHLVGALRSCQMNLVADLVQEVQQARDLQNRSGAMSPMSWNSDASTSEAS
